Results as given in publication PMC12707108, “CpoS-Inc interactions facilitate host cell modulation during Chlamydia trachomatis infection” (Infection and Immunity, 2025).
Where “and” joins values, the source holds several entries; their conditions need not be identical. Identical values can stand only once.

Columns and labels:
[1] = target: MBP-IPAM C-ter (Chlamydia trachomatis serovar L2 (LGV 434/Bu)); assay: SEC + other: mass photometry + native gel or EMSA; purified MBP-tagged proteins; Superdex 200 SEC, mass photometry of SEC fractions in DPBS, native PAGE
[2] = target: MBP-InaC C-ter (Chlamydia trachomatis serovar L2 (LGV 434/Bu)); assay: as above
[3] = target: the molecule itself; assay: not stated; CpoS C-ter in acidic and basic buffer conditions (Fig. S3C)
[4] = target: the molecule itself; assay: mass photometry; fractions of MBP-CpoS C-ter from Superdex 200 SEC (13 and 14 mL); 100 nM protein added to DPBS, room temperature
[5] = target: the molecule itself; assay: SEC + other: mass photometry + native gel or EMSA; purified MBP-tagged proteins; Superdex 200 SEC, mass photometry of SEC fractions in DPBS, native PAGE

MBP-IPAM C-ter (domain or fragment)
stoichiometry N [1]: 2 and 3

MBP-InaC C-ter (domain or fragment)
stoichiometry N [2]: 2 and 3

B1: MBP-CpoS C-ter (domain or fragment)
chain: RARSRRVEIERQLEVVSMQIEELEEEYKALSEVYRANLEARRAVSKYCQELEEKILDLCKRHAATICSIEEDAKQEIRHQTERFKQRLQQNQNTCSQLTAELCKLRSENKALSERLQVQASRRKK
notes: also called MBP-tagged CpoS C-ter; MBP-tagged CpoS; source: E. coli BL21 (DE3), purified (amylose resin, Superdex 200)
stoichiometry N [3]: 2
stoichiometry N [4]: 4 and 8

B2: MBP-IncA C-ter (domain or fragment)
chain: QKTANLHLYQDLQREVGSLKEINFMLSVLQKEFLHLSKEFATTSKDLSAVSQDFYSCLQGFRDNYKGFESLLDEYKNSTEEMRKLFSQEIIADLKGSVASLREEIRFLTPLAEEVRRLAHNQESLTAAIEELKTIRDSLRDEIGQLSQLSKTLTSQIALQRKESSDLCSQIRETLSSPRKSASPSTKSS
stoichiometry N [5]: 4
